Data set [1] deals with Streptomycete ACP involved in tetracenomycin polyketide antibiotic biosynthesis (apo-form).
Data set [2] has as its system Streptomycete ACP involved in granaticin polyketide antibiotic biosynthesis (apo-form).
For data set [3], the system named is Rhizobial NodF (wild-type).
For data set [4], the system named is Streptomycete ACP involved in frenolicin polyketide antibiotic biosynthesis (apo-form).
The subject of data set [5] is Streptomycete ACP involved in oxytetracycline polyketide antibiotic biosynthesis (apo-form).
Data set [6] has as its system Lactobacillus casei D-Alanyl carrier protein (apo-Dcp).
The target in data set [7] is E. coli fatty acid synthase apo-acyl carrier protein (apo-ACP) (UniProt P0A6A8).
E. coli fatty acid synthase apo-acyl carrier protein (apo-ACP), sequence (P0A6A8 2-78): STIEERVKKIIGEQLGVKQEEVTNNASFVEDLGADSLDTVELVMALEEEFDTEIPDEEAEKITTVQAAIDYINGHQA
Data set [8] has as its target EntF (E. coli enterobactin synthetase component), apo form (UniProt P11454).
Data set [9] concerns His6-peptidyl carrier protein (PCP domain of TycA, hexa-histidine tagged).
For data set [10], the target named is T1, His6-SrfB1 (N-terminal hexa-histidine-tagged SrfB1 valine-activating domain of surfactin synthetase) (UniProt Q04747).
T1 sequence: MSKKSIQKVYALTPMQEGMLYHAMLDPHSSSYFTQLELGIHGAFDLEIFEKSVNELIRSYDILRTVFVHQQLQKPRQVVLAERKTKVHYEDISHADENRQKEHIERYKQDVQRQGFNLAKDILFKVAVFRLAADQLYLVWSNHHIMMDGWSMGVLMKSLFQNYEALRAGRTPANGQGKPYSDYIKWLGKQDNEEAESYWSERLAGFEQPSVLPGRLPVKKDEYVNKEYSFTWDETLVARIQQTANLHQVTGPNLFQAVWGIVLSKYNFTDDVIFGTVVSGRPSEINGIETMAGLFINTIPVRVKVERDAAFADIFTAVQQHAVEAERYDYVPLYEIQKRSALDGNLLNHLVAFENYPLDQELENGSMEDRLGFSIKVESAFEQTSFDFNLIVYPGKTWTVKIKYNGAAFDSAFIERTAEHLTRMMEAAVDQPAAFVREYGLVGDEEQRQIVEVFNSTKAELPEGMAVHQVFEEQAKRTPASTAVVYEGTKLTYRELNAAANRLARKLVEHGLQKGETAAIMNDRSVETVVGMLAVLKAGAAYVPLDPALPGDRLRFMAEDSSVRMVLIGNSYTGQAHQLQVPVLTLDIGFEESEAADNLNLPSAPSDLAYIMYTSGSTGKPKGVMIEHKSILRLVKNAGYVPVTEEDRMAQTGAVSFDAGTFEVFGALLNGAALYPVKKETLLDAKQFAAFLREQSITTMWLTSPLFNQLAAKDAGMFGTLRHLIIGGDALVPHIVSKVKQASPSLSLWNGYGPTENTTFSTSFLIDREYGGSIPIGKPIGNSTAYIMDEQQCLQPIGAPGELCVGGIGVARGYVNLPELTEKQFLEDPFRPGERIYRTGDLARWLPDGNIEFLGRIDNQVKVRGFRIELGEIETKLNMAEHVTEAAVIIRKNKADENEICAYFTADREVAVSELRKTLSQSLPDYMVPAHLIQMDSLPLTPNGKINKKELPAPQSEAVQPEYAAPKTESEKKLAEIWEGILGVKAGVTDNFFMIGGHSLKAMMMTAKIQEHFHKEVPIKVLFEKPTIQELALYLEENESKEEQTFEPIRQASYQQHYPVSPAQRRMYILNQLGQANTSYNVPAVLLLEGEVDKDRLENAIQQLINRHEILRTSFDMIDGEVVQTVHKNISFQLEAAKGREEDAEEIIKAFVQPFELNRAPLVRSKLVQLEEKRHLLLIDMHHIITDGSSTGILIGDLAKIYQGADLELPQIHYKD

For data set [11], the target named is His6-SrfB1 (N-terminal hexa-histidine-tagged SrfB1 valine-activating domain of surfactin synthetase) (Bacillus) (UniProt Q04747). As to the kind of experiment: cell-based or functional assay.

Values joined by “and” are separate entries in the source; they are usually repeats but may differ in a detail not shown here. Identical values can stand only once.

Here are results for four substances from US7192735.

EntF (E. coli enterobactin synthetase component), apo form, sequence (P11454 whole entry, the tested form may be a part): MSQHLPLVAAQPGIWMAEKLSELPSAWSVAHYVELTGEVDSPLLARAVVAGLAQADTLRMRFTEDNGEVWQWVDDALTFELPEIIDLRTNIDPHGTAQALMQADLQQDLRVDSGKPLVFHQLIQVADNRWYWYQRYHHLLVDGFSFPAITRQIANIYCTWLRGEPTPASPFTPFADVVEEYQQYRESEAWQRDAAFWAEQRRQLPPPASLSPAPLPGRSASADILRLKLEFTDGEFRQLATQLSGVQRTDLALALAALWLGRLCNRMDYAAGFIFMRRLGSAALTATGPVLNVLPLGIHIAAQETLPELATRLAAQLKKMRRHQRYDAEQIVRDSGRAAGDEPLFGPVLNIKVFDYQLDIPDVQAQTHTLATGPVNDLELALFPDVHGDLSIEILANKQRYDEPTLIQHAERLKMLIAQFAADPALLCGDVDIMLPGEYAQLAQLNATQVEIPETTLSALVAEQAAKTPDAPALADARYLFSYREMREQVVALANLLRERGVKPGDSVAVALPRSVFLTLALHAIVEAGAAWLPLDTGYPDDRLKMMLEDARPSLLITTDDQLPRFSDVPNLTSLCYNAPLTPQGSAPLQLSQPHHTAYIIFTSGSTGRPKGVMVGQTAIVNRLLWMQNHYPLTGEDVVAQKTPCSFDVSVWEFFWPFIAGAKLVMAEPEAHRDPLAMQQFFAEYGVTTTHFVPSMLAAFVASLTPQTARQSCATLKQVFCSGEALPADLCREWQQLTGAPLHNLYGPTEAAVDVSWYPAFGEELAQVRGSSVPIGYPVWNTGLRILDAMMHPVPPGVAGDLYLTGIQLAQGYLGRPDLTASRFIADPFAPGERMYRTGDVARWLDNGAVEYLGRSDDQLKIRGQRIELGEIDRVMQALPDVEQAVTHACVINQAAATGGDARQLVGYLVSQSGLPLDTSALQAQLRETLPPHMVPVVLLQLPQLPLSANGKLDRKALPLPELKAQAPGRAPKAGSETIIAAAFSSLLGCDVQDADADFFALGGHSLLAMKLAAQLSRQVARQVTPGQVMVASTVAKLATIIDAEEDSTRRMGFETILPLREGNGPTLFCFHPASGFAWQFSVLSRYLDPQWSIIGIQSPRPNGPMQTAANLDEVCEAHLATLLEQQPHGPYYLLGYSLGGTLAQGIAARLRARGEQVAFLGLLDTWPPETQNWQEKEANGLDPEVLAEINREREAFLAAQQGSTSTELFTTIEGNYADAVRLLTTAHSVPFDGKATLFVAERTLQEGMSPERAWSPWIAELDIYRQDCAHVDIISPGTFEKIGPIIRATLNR

Regarding “Escherichia coli holo-acyl carrier protein synthase (ACPS)”, in data set [1], the phosphopantetheinylation result is “E. coli ACPS modifies the apo-form of Streptomycete ACPs involved in frenolicin, granaticin, oxytetracycline, and tetracenomycin polyketide antibiotic biosynthesis”. In addition, the phosphopantetheinylation result in data set [2] is “E. coli ACPS modifies the apo-form of Streptomycete ACPs involved in frenolicin, granaticin, oxytetracycline, and tetracenomycin polyketide antibiotic biosynthesis”. Also, in data set [3], the “% conversion” value was found to be 47% conversion and the “[3H]phosphopantetheine incorporated (+ ACPS)” value is given as 236 000 dpm. In the data set with ACP-NodF chimera, the “[3H]phosphopantetheine incorporated (+ ACPS)” value is reported as 122 000 dpm. Also, the phosphopantetheinylation entry in [4] was “E. coli ACPS modifies the apo-form of Streptomycete ACPs involved in frenolicin, granaticin, oxytetracycline, and tetracenomycin polyketide antibiotic biosynthesis”. Further, the phosphopantetheinylation entry in [5] was “E. coli ACPS modifies the apo-form of Streptomycete ACPs involved in frenolicin, granaticin, oxytetracycline, and tetracenomycin polyketide antibiotic biosynthesis”. Further, in data set [6], the “[^3H] holo-Dcp formed versus apo-Dcp” value is “the amount of holo-Dcp formed increases linearly with the amount of apo-Dcp in the reaction”; the “radioactivity incorporated into the protein fraction (Dcp + ACPS)” value was 0.98 × 10^6 (±0.95%) and 1.04 × 10^6 (±0.93%) and 1.00 × 10^6 (±0.77%). Also, in data set [7], the “% conversion” value worked out at 46% conversion; the “Km value for apo-ACP” value is listed as “we were able to assign an upper limit of ˜1 µM to the Km value for apo-ACP”; the “[3H]phosphopantetheine incorporated (+ ACPS)” value is 1 320 000 dpm; the apparent kcat result is “An apparent kcat value of about 10 min^-1 was measured at saturating CoA and 50 µM apo-ACP”. In [7], the “radioactivity incorporated into the protein fraction (ACP + ACPS)” value is 2.13 × 10^6 (±.65%) and 2.20 × 10^6 (±.64%) and 2.21 × 10^6 (±.63%); the “time course of holo-ACP formation” value is reported as “almost exclusive modification of apo-ACP by ACPS”. Besides, in data set [8], the “time course of incorporation of radiolabel into EntF” value was “EntF undergoes almost no modification in the presence of 15-fold higher concentrations of ACPS and o195”.
For the substance “Sfp (B. subtilis phosphopantetheinyl transferase)”, the “[3H]-4'-Ppant incorporated versus substrate concentration” value in data set [9] is listed as “Sfp is capable of phosphopantetheinylating a substrate, such as PCP, in a wide range of concentrations”. For the same substance, the phosphopantetheinylation entry in data set [9] and in [7] was “Sfp efficiently catalyzes modification of all three substrates” each time. Moreover, the “incorporation of [3H]-4'-Ppant” value in data set [10] is listed as “Sfp is capable of phosphopantetheinylating an SfrB1 fragment”.
As to “Sfp (B. subtilis phosphopantetheinyl transferase) (enzyme)”, in [11], the level of [^14C]-L-valine-holo-SrfB1 covalent complex formed was 14 fold.
For the substance “EntD (E. coli), recombinant from pET28b-entD”, in [8], the “incorporation of [3H]-4'-Ppant” value was “EntD is capable of phosphopantetheinylating an EntF fragment” and the “time course of incorporation of radiolabel into EntF” value is reported as “EntF is modified effectively by EntD (100 nM)”.
